Results on one molecule are retold here after patent US9938510B2, “Photobacterium sp. alpha-2-6-sialyltransferase variants” (The Regents of the University of California, priority 2014, dated 2018).

The data set is described as follows: Kinetics of CMP-Neu5Ac donor hydrolysis activity (capillary electrophoresis). It counts as biochemical. How it is done: Procedure for Kinetic Analysis of Donor Hydrolysis by His6-Pd2,6ST(16-497), Psp26ST(15-501)-His6 and its A235D and A366G Mutants
The kinetics study for the donor hydrolysis activity of His6-Pd2,6ST(16-497) was carried out at 37° C. for 20 min in Tris-HCl buffer (200 mM, pH 8.0). The kinetics study for the donor hydrolysis activities of Psp26ST(15-501)-His6 and its A235D mutant was carried out at 20° C. for 10 min in Tris-HCl buffer (200 mM, pH 8.0). All reactions were performed in duplicate in a total volume of 10 μL containing varied concentrations of CMP-Neu5Ac (10, 20, 40, 60, 80 and 100 mM) and the enzyme (6 μM). Reactions were stopped by adding 10 μL of ethanol and then centrifuged. The supernatants were analyzed by a P/ACETM capillary electrophoresis (CE) system equipped with a photodiode array (PDA) detector (Beckman Coulter, Inc., Fullerton, Calif.). CE conditions were as follows: 75 μm i.d. capillary, 25 KV/80μÅ, 5 s vacuum injections, monitored at 200 nm and 254 nm, the running buffer used was sodium tetraborate (25 mM, pH 9.4). Apparent kinetic parameters were obtained by fitting the experimental data (the average values of duplicate assay results) into the Michaelis-Menten equation using Grafit 5.0.

B1: Psp26ST(15-501)-His6: recombinant Photobacterium sp. JH-ISH-224 α2-6-sialyltransferase, residues 15-501, C-terminal His6, wild-type; SEQ ID NO: 23 (protein)
chain: CNNSEENTQSIIKNDINKTIIDEEYVNLEPINQSNISFTKHSWVQTCGTQQLLTEQNKESISLSVVAPRLDDDEKYCFDFNGVSNKGEKYITKVTLNVVAPSLEVYVDHASLPTLQQLMDIIKSEEENPTAQRYIAWGRIVPTDEQMKELNITSFALINNHTPADLVQEIVKQAQTKHRLNVKLSSNTAHSFDNLVPILKELNSFNNVTVTNIDLYDDGSAEYVNLYNWRDTLNKTDNLKIGKDYLEDVINGINEDTSNTGTSSVYNWQKLYPANYHFLRKDYLTLEPSLHELRDYIGDSLKQMQWDGFKKFNSKQQELFLSIVNFDKQKLQNEYNSSNLPNFVFTGTTVWAGNHEREYYAKQQINVINNAINESSPHYLGNSYDLFFKGHPGGGIINTLIMQNYPSMVDIPSKISFEVLMMTDMLPDAVAGIASSLYFTIPAEKIKFIVFTSTETITDRETALRSPLVQVMIKLGIVKEENVLFWA
modifications: C-terminal His6; Synthetic Psp26ST(15-501) WILD TYPE
As to B1, for the setting “versus kcat/Km with GalNAcα2AA as acceptor”, the “CMP-Neu5Ac hydrolysis efficiency relative to sialyltransferase activity (more efficient)” value is reported as “about 14 fold”. The “CMP-Neu5Ac hydrolysis efficiency relative to sialyltransferase activity (lower)” value (versus kcat/Km with LacβMU as acceptor) turned out to be 13 fold.
